Reference: the supplement of paper PMC7877785
± gives the uncertainty stated by the source.

Assay: self-splicing fitness, log relative to wild type (ln ratio); higher = more splicing; Tetrahymena group I intron in knt gene, E. coli kanamycin selection, DiMSum; sequences stand for … in CUCUCU…GGAGGGAAAAGUUAUCAGGCAUGCACCUGGUAGCUAGUCUUUAAACCAAUAGAUUGCAUCGGUUUAAAAGGCAAGACCGUCAAAUUGCGGGAAAGGGGUCAACAGCCGUUCAGUACCAAGUCUCAGGGGAAACUUUGAGAUGGCCUUGCAAAGGGUAUGGUAAUAAGCUGACGGACAUGGUCCUAACCACGCAGCCAAGUCCUAAGUCAACAGAUCUUCUGUUGAUAUGGAUGCAGUUCACAGACUAAAUGUCGGUCGGGGAAGAUGUAUUCUUCUCAUAAGAUAUAGUCGGACCUCUCCUUAAUGGGAGCUAGCGGAUGAAGUGAUGCAACACUGGAGCCGCUGGGAACUAAUUUGUAUGCGAAAGUAUAUUGAUUAGUUUUGGAGUACUCGUGGUCG
Method in brief: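 The eight P1ex-region nucleotides of an intron in the knt kanamycin-resistance gene on pET-22b(+) were all randomised and the library put into E. coli BL21(DE3). Six replicate transformations were grown overnight at 37°C or 30°C on LB agar with or without 25 μg/mL kanamycin, together with 100 μg/mL carbenicillin, 50 μM IPTG and 0.2% rhamnose. Colonies were pooled and amplicon-sequenced on an Illumina HiSeq 2500. Fitness from DiMSum is the error-weighted combination of wild-type-normalised replicate fold changes, kanamycin over none.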

Sequence	self-splicing fitness (ln) (30 °C)	self-splicing fitness (ln) (37 °C)
CGUCAGCAAUAUUACGUUGA	-3.04 ± 0.26	-2.26 ± 0.19
CGUCAGCAAUAUUACGUUGC	-3.95 ± 0.26	-2.89 ± 0.18
CGUGAGCAAUAUUACGAAUU		-0.866 ± 0.17
CGUGAGCAAUAUUACGACUA	-2.94 ± 0.47	-1.94 ± 0.36
CGUGAGCAAUAUUACGAGUA		-0.918 ± 0.47
CGUGAGCAAUAUUACGCCAA	-3.41 ± 0.36	
CGUGAGCAAUAUUACGCGUA		-1.86 ± 0.47
CGUGAGCAAUAUUACGCGUC	-3.12 ± 0.31	
CGUGAGCAAUAUUACGCUCA	-2.84 ± 0.31	
CGUGAGCAAUAUUACGCUUU	-2.54 ± 0.35	-1.98 ± 0.28
CGUGAGCAAUAUUACGGAAA	-2.27 ± 0.3	-1.14 ± 0.27
CGUGAGCAAUAUUACGGAUA	-3.1 ± 0.3	-2.71 ± 0.34
CGUGAGCAAUAUUACGGUCG	-1.17 ± 0.083	-0.688 ± 0.13
CGUGAGCAAUAUUACGUACA	-1.46 ± 0.053	-0.707 ± 0.059
CGUGAGCAAUAUUACGUAGG	-1.12 ± 0.089	-1.39 ± 0.12
CGUGAGCAAUAUUACGUGAC	-4.11 ± 0.36	
CGUGAGCAAUAUUACGUGUC	-3 ± 0.4	-3.04 ± 0.43
CGUGAGCAAUAUUACGUGUG	-1.39 ± 0.1	-0.501 ± 0.1
CGUGAGCAAUAUUACGUUUG	-2.04 ± 0.12	-1.5 ± 0.21
CGUUAGCAAUAUUACGAAGA	-2.24 ± 0.29	
CGUUAGCAAUAUUACGAAUA	-1.54 ± 0.17	-1.69 ± 0.36
CGUUAGCAAUAUUACGACCC	-2.92 ± 0.43	

Sequence	self-splicing fitness (ln) (30 °C)	self-splicing fitness (ln) (37 °C)
CGUUAGCAAUAUUACGAGGG	-3.63 ± 0.47	-0.739 ± 0.19
CGUUAGCAAUAUUACGCAAG	-1.97 ± 0.13	-1.18 ± 0.14
CGUUAGCAAUAUUACGCCUG	-0.175 ± 0.085	0.664 ± 0.1
CGUUAGCAAUAUUACGCGCA	-1.01 ± 0.29	-0.131 ± 0.47
CGUUAGCAAUAUUACGCUUU		-2.41 ± 0.3
CGUUAGCAAUAUUACGGCCU	-1.53 ± 0.15	-1.26 ± 0.23
CGUUAGCAAUAUUACGGGAU		-2.25 ± 0.26
CGUUAGCAAUAUUACGGGGU	-3.72 ± 0.24	-2.03 ± 0.35
CGUUAGCAAUAUUACGGUCG	-1.03 ± 0.11	0.369 ± 0.12
CGUUAGCAAUAUUACGUCGU		-1.81 ± 0.33
CGUUAGCAAUAUUACGUGGC	-2.5 ± 0.25	-2.75 ± 0.25
CGUUAGCAAUAUUACGUGUG	-0.838 ± 0.062	-1.12 ± 0.08
CGUUAGCAAUAUUACGUUGG	-1.45 ± 0.091	-0.573 ± 0.12
CUAAAGCAAUAUUACGAAAG	0.0922 ± 0.092	0.21 ± 0.12
CUAAAGCAAUAUUACGACUA	-2.79 ± 0.21	-1.78 ± 0.17
CUAAAGCAAUAUUACGAGGA	-4.32 ± 0.29	-1.62 ± 0.27
CUAAAGCAAUAUUACGAUGG	-0.196 ± 0.058	0.0185 ± 0.091
CUAAAGCAAUAUUACGAUUC	-3.33 ± 0.31	-3.73 ± 0.46
CUAAAGCAAUAUUACGCAAU	-3.94 ± 0.21	-2.97 ± 0.24
CUAAAGCAAUAUUACGCCUG	0.183 ± 0.087	0.129 ± 0.099
CUAAAGCAAUAUUACGCCUU	-3.79 ± 0.26	-1.25 ± 0.22
